Experimental data taken from the supplement of paper PMC7877785.
± gives the uncertainty stated by the source.

Assay: self-splicing fitness, log relative to wild type (ln ratio); higher = more splicing; Tetrahymena group I intron in knt gene, E. coli kanamycin selection, DiMSum; sequences stand for … in CUCUCU…GGAGGGAAAAGUUAUCAGGCAUGCACCUGGUAGCUAGUCUUUAAACCAAUAGAUUGCAUCGGUUUAAAAGGCAAGACCGUCAAAUUGCGGGAAAGGGGUCAACAGCCGUUCAGUACCAAGUCUCAGGGGAAACUUUGAGAUGGCCUUGCAAAGGGUAUGGUAAUAAGCUGACGGACAUGGUCCUAACCACGCAGCCAAGUCCUAAGUCAACAGAUCUUCUGUUGAUAUGGAUGCAGUUCACAGACUAAAUGUCGGUCGGGGAAGAUGUAUUCUUCUCAUAAGAUAUAGUCGGACCUCUCCUUAAUGGGAGCUAGCGGAUGAAGUGAUGCAACACUGGAGCCGCUGGGAACUAAUUUGUAUGCGAAAGUAUAUUGAUUAGUUUUGGAGUACUCGUGGUCG
Outline: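 A randomised library covering all eight P1ex-region intron nucleotides was built with the intron in the knt kanamycin-resistance gene on pET-22b(+) and held in E. coli BL21(DE3). Cells were grown overnight at 37°C or 30°C on LB agar, with or without 25 μg/mL kanamycin, plus 100 μg/mL carbenicillin, 50 μM IPTG and 0.2% rhamnose, and pooled colonies were amplicon-sequenced on an Illumina HiSeq 2500. DiMSum fitness is the error-weighted combination of wild-type-normalised replicate fold changes, kanamycin versus none.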

Sequence	self-splicing fitness (ln) (30 °C)	self-splicing fitness (ln) (37 °C)
AAGCAGCAAUAUUACGAAGG	-2.99 ± 0.16	-3.01 ± 0.26
UGCAAGCAAUAUUACGUCUA	-0.304 ± 0.047	0.371 ± 0.062
AGGGAGCAAUAUUACGCGUA	-3.21 ± 0.31	-3.16 ± 0.23
GGGAAGCAAUAUUACGACAG	-3.01 ± 0.31	-3 ± 0.37
GCUUAGCAAUAUUACGCGAC	-3.07 ± 0.29	-1.73 ± 0.2
CGUAAGCAAUAUUACGGACG	-2.45 ± 0.12	-1.89 ± 0.14
CCUGAGCAAUAUUACGUAAU	-2.24 ± 0.2	-2.6 ± 0.25
CACAAGCAAUAUUACGUGAA	-4.27 ± 0.25	-2.39 ± 0.21
GACCAGCAAUAUUACGUGGG	-3.64 ± 0.12	-2.47 ± 0.12
CUAGAGCAAUAUUACGGCCG	-0.252 ± 0.15	0.456 ± 0.27
GUGUAGCAAUAUUACGCGAC	-1.33 ± 0.45	-1.02 ± 0.27
ACCCAGCAAUAUUACGAACG	-3.06 ± 0.14	-1.4 ± 0.14
CUCGAGCAAUAUUACGUGGU	-3.41 ± 0.16	-2.49 ± 0.18
CGGUAGCAAUAUUACGGUUG	-0.837 ± 0.069	-0.0229 ± 0.093
UAGGAGCAAUAUUACGUCGU	-1.72 ± 0.28	-1.86 ± 0.35
AUCUAGCAAUAUUACGUAUG	-2.41 ± 0.13	-1.55 ± 0.17
AAGGAGCAAUAUUACGCAUG	-3.28 ± 0.22	-2.65 ± 0.22
GCUUAGCAAUAUUACGUAAG	-2.18 ± 0.12	-0.181 ± 0.17
UCUGAGCAAUAUUACGUUAC	-3.38 ± 0.2	-2.33 ± 0.22
CUUAAGCAAUAUUACGUCGG	-1.66 ± 0.097	-0.424 ± 0.11
AUUGAGCAAUAUUACGUACA	-3.85 ± 0.27	-1.87 ± 0.16
GCUUAGCAAUAUUACGAUGG	-1.54 ± 0.1	-0.452 ± 0.097
CACUAGCAAUAUUACGGUUU	-1.56 ± 0.077	-0.979 ± 0.093
ACCUAGCAAUAUUACGCAUU	-1.42 ± 0.051	-0.377 ± 0.056
UCGGAGCAAUAUUACGCUUA	-2.33 ± 0.33	-1.89 ± 0.41
AACGAGCAAUAUUACGGCCG	-1.2 ± 0.12	-1.07 ± 0.21

Sequence	self-splicing fitness (ln) (30 °C)	self-splicing fitness (ln) (37 °C)
UAGGAGCAAUAUUACGGGCG	-2.73 ± 0.19	-2.58 ± 0.23
UUUUAGCAAUAUUACGACCG	1.81 ± 0.28	-1.19 ± 0.4
UAUGAGCAAUAUUACGGAUU	-2.96 ± 0.28	-2.28 ± 0.31
UGUCAGCAAUAUUACGAGUA	-1.31 ± 0.066	-0.775 ± 0.073
UGAAAGCAAUAUUACGGUUU	-1.87 ± 0.1	-1.16 ± 0.12
CGUUAGCAAUAUUACGCCUU	-3.33 ± 0.43	-2.18 ± 0.19
GCCCAGCAAUAUUACGUAUC	-0.98 ± 0.08	-1.18 ± 0.081
UCCAAGCAAUAUUACGUGGG	-3.89 ± 0.23	-2.71 ± 0.18
GGCGAGCAAUAUUACGUCAU	-2.45 ± 0.14	-1.76 ± 0.11
UAAAAGCAAUAUUACGUCAU	-3.62 ± 0.14	-1.88 ± 0.1
CUGGAGCAAUAUUACGUGGU	-3.53 ± 0.22	-2.4 ± 0.35
AAGUAGCAAUAUUACGGGGA	-2.42 ± 0.18	-1.74 ± 0.17
UGGUAGCAAUAUUACGGGCG	0.0756 ± 0.11	0.475 ± 0.12
UGACAGCAAUAUUACGGAGG	-4.41 ± 0.29	-3.93 ± 0.21
ACCUAGCAAUAUUACGGUCC	-2.82 ± 0.15	-2 ± 0.15
GCCGAGCAAUAUUACGAAGA	-2.76 ± 0.16	-2.03 ± 0.12
GCAAAGCAAUAUUACGCAAG	-3.95 ± 0.19	-2.22 ± 0.14
AGCAAGCAAUAUUACGUCAC	-2.89 ± 0.16	-1.88 ± 0.18
GUGCAGCAAUAUUACGGUAA	-1.5 ± 0.18	0.218 ± 0.14
CGUUAGCAAUAUUACGACAA	-1.99 ± 0.17	-1.15 ± 0.17
CGCUAGCAAUAUUACGGUGC	-4.65 ± 0.34	-3.09 ± 0.25
CAGCAGCAAUAUUACGACGC	–	-1.5 ± 0.45
CACAAGCAAUAUUACGCACG	-0.378 ± 0.067	-0.684 ± 0.075
GGUAAGCAAUAUUACGAUAG	-3.14 ± 0.2	-2.14 ± 0.24
UCCAAGCAAUAUUACGUCAC	-3.72 ± 0.39	-3.28 ± 0.43
ACCGAGCAAUAUUACGCUUC	-2.06 ± 0.36	–

Sequence	self-splicing fitness (ln) (30 °C)	self-splicing fitness (ln) (37 °C)
GGCGAGCAAUAUUACGGAAU	-2.91 ± 0.19	-1.87 ± 0.21
CGGCAGCAAUAUUACGUCUG	-2.32 ± 0.21	-1.86 ± 0.19
UAGCAGCAAUAUUACGUGCU	-1.12 ± 0.12	-1.9 ± 0.16
AAGAAGCAAUAUUACGAUCU	0.00748 ± 0.089	-0.373 ± 0.11
CGGCAGCAAUAUUACGAGAU	-1.99 ± 0.19	-2.81 ± 0.27
CGGGAGCAAUAUUACGUCUC	-2.33 ± 0.24	–
UCCAAGCAAUAUUACGGUCC	-2.7 ± 0.37	-1.04 ± 0.22
GCAGAGCAAUAUUACGUUAC	-2.97 ± 0.16	-1.38 ± 0.17
GCAGAGCAAUAUUACGGCCG	-3.3 ± 0.24	-2.02 ± 0.27
GUAGAGCAAUAUUACGGGAA	-3.56 ± 0.32	-2.35 ± 0.26
UCGCAGCAAUAUUACGAGGC	-3.12 ± 0.24	-3.16 ± 0.26
AAGUAGCAAUAUUACGUUAC	-3.59 ± 0.3	-2.71 ± 0.29
ACGCAGCAAUAUUACGCUCA	-0.563 ± 0.063	0.124 ± 0.088
CUUAAGCAAUAUUACGUUCU	-2.91 ± 0.19	-2.14 ± 0.21
GCGUAGCAAUAUUACGUUAG	-3.92 ± 0.22	-2.47 ± 0.23
ACAGAGCAAUAUUACGUCCG	-3.65 ± 0.21	-2.52 ± 0.27
UGUAAGCAAUAUUACGGCGG	-0.367 ± 0.098	-0.217 ± 0.12
UAUAAGCAAUAUUACGACAA	0.0108 ± 0.14	-0.202 ± 0.17
GUUCAGCAAUAUUACGCUCU	-0.149 ± 0.09	0.0537 ± 0.097
GGCGAGCAAUAUUACGCGUU	-2.26 ± 0.24	-1.94 ± 0.3
GGUCAGCAAUAUUACGGAAC	-1.04 ± 0.1	-0.383 ± 0.14
CAUAAGCAAUAUUACGCAAG	-2.14 ± 0.11	-0.944 ± 0.13
ACACAGCAAUAUUACGACCU	-0.472 ± 0.069	0.384 ± 0.092
AGGAAGCAAUAUUACGCGUA	-1.87 ± 0.15	-0.669 ± 0.11
GUUCAGCAAUAUUACGCCAA	-1.32 ± 0.21	-1.72 ± 0.18
